Source: publication PMC8298264, “Function of cofactor Akirin2 in the regulation of gene expression in model human neutrophil-like HL60 cells” (Bioscience Reports, 2021)

B1: Cystatin-F (protein, UniProt O76096 20-145, looked up)
Cystatin-F: GPSPDTCSQDLNSRVKPGFPKTIKTNDPGVLQAARYSVEKFNNCTNDMFLFKESRITRALVQIVKGLKYMLEVEIGRTTCKKNQHLRLDDCDFQTNHTLKQTLSCYSEVWVVPWLQHFEVPVLRCH
B2: Lysozyme C (protein, UniProt P61626 19-148, looked up)
Lysozyme C: KVFERCELARTLKRLGMDGYRGISLANWMCLAKWESGYNTRATNYNAGDRSTDYGIFQINSRYWCNDGKTPGAVNACHLSCSALLQDNIADAVACAKRVVRDPQGIRAWVAWRNRCQNRDVRQYVQGCGV
B3: Spartin (protein, UniProt Q8N0X7 1-666, looked up)
Spartin: MEQEPQNGEPAEIKIIREAYKKAFLFVNKGLNTDELGQKEEAKNYYKQGIGHLLRGISISSKESEHTGPGWESARQMQQKMKETLQNVRTRLEILEKGLATSLQNDLQEVPKLYPEFPPKDMCEKLPEPQSFSSAPQHAEVNGNTSTPSAGAVAAPASLSLPSQSCPAEAPPAYTPQAAEGHYTVSYGTDSGEFSSVGEEFYRNHSQPPPLETLGLDADELILIPNGVQIFFVNPAGEVSAPSYPGYLRIVRFLDNSLDTVLNRPPGFLQVCDWLYPLVPDRSPVLKCTAGAYMFPDTMLQAAGCFVGVVLSSELPEDDRELFEDLLRQMSDLRLQANWNRAEEENEFQIPGRTRPSSDQLKEASGTDVKQLDQGNKDVRHKGKRGKRAKDTSSEEVNLSHIVPCEPVPEEKPKELPEWSEKVAHNILSGASWVSWGLVKGAEITGKAIQKGASKLRERIQPEEKPVEVSPAVTKGLYIAKQATGGAAKVSQFLVDGVCTVANCVGKELAPHVKKHGSKLVPESLKKDKDGKSPLDGAMVVAASSVQGFSTVWQGLECAAKCIVNNVSAETVQTVRYKYGYNAGEATHHAVDSAVNVGVTAYNINNIGIKAMVKKTATQTGHTLLEDYQIVDNSQRENQEGAANVNVRGEKDEQTKEVKEAKKKDK
B4: Intraflagellar transport protein 25 homolog (protein, UniProt Q9Y547 1-144, looked up)
Intraflagellar transport …: MRKIDLCLSSEGSEVILATSSDEKHPPENIIDGNPETFWTTTGMFPQEFIICFHKHVRIERLVIQSYFVQTLKIEKSTSKEPVDFEQWIEKDLVHTEGQLQNEEIVAHDGSATYLRFIIVSAFDHFASVHSVSAEGTVVSNLSS
B5: sp¦P11766¦ADHX_HUMAN (protein, UniProt P11766 2-374, looked up)
Alcohol dehydrogenase class-3: ANEVIKCKAAVAWEAGKPLSIEEIEVAPPKAHEVRIKIIATAVCHTDAYTLSGADPEGCFPVILGHEGAGIVESVGEGVTKLKAGDTVIPLYIPQCGECKFCLNPKTNLCQKIRVTQGKGLMPDGTSRFTCKGKTILHYMGTSTFSEYTVVADISVAKIDPLAPLDKVCLLGCGISTGYGAAVNTAKLEPGSVCAVFGLGGVGLAVIMGCKVAGASRIIGVDINKDKFARAKEFGATECINPQDFSKPIQEVLIEMTDGGVDYSFECIGNVKVMRAALEACHKGWGVSVVVGVAASGEEIATRPFQLVTGRTWKGTAFGGWKSVESVPKLVSEYMSKKIKVDEFVTHNLSFDEINKAFELMHSGKSIRTVVKI
B6: Serpin B8 (protein, UniProt P50452 1-374, looked up)
Serpin B8: MDDLCEANGTFAISLFKILGEEDNSRNVFFSPMSISSALAMVFMGAKGSTAAQMSQALCLYKDGDIHRGFQSLLSEVNRTGTQYLLRTANRLFGEKTCDFLPDFKEYCQKFYQAELEELSFAEDTEECRKHINDWVAEKTEGKISEVLDAGTVDPLTKLVLVNAIYFKGKWNEQFDRKYTRGMLFKTNEEKKTVQMMFKEAKFKMGYADEVHTQVLELPYVEEELSMVILLPDDNTDLAVVEKALTYEKFKAWTNSEKLTKSKVQVFLPRLKLEESYDLEPFLRRLGMIDAFDEAKADFSGMSTEKNVPLSKVAHKCFVEVNEEGTEAAAATAVVRNSRCSRMEPRFCADHPFLFFIRHHKTNCILFCGRFSSP
B7: Alpha-2-HS-glycoprotein (protein, UniProt P02765 19-300; P02765 341-367, looked up)
Alpha-2-HS-glycoprotein chain … 1: APHGPGLIYRQPNCDDPETEEAALVAIDYINQNLPWGYKHTLNQIDEVKVWPQQPSGELFEIEIDTLETTCHVLDPTPVARCSVRQLKEHAVEGDCDFQLLKLDGKFSVVYAKCDSSPDSAEDVRKVCQDCPLLAPLNDTRVVHAAKAALAAFNAQNNGSNFQLEEISRAQLVPLPPSTYVEFTVSGTDCVAKEATEAAKCNLLAEKQYGFCKATLSEKLGGAEVAVTCMVFQTQPVSSQPQPEGANEAVPTPVVDPDAPPSPPLGAPGLPPAGSPPDSHVL
Alpha-2-HS-glycoprotein chain … 2: TVVQPSVGAAAGPVVPPCPGRIRHFKV
B8: PML-RARA-regulated adapter molecule 1 (protein, UniProt Q96QH2 1-670, looked up)
PML-RARA-regulated adapter …: MAHHLPAAMESHQDFRSIKAKFQASQPEPSDLPKKPPKPEFGKLKKFSQPELSEHPKKAPLPEFGAVSLKPPPPEVTDLPKKPPPPEVTDLPKKPPPPEVTDLPKKPPPPEVTDLPKKPSKLELSDLSKKFPQLGATPFPRKPLQPEVGEAPLKASLPEPGAPARKPLQPDELSHPARPPSEPKSGAFPRKLWQPEAGEATPRSPQPELSTFPKKPAQPEFNVYPKKPPQPQVGGLPKKSVPQPEFSEAAQTPLWKPQSSEPKRDSSAFPKKASQPPLSDFPKKPPQPELGDLTRTSSEPEVSVLPKRPRPAEFKALSKKPPQPELGGLPRTSSEPEFNSLPRKLLQPERRGPPRKFSQPEPSAVLKRHPQPEFFGDLPRKPPLPSSASESSLPAAVAGFSSRHPLSPGFGAAGTPRWRSGGLVHSGGARPGLRPSHPPRRRPLPPASSLGHPPAKPPLPPGPVDMQSFRRPSAASIDLRRTRSAAGLHFQDRQPEDIPQVPDEIYELYDDVEPRDDSSPSPKGRDEAPSVQQAARRPPQDPALRKEKDPQPQQLPPMDPKLLKQLRKAEKAEREFRKKFKFEGEIVVHTKMMIDPNAKTRRGGGKHLGIRRGEILEVIEFTSNEEMLCRDPKGKYGYVPRTALLPLETEVYDDVDFCDPLENQPLPLGR
B9: Azurocidin (protein, UniProt P20160 27-248, looked up)
Azurocidin: IVGGRKARPRQFPFLASIQNQGRHFCGGALIHARFVMTAASCFQSQNPGVSTVVLGAYDLRRRERQSRQTFSISSMSENGYDPQQNLNDLMLLQLDREANLTSSVTILPLPLQNATVEAGTRCQVAGWGSQRSGGRLSRFPRFVNVTVTPEDQCRPNNVCTGVLTRRGGICNGDGGTPLVCEGLAHGVASFSLGPCGRGPDFFTRVALFRDWIDGVLNNPGP
B10: Non-secretory ribonuclease (protein, UniProt P10153 28-161, looked up)
Non-secretory ribonuclease: KPPQFTWAQWFETQHINMTSQQCTNAMQVINNYQRRCKNQNTFLLTTFANVVNVCGNPNMTCPSNKTRKNCHHSGSQVPLIHCNLTTPSPQNISNCRYAQTPANMFYIVACDNRDQRRDPPQYPVVPVHLDRII
B11: UDP-N-acetylglucosamine--peptide N-acetylglucosaminyltransferase 110 kDa subunit (protein, UniProt O15294 2-1046, looked up)
UDP-N-acetylglucosamine--pepti …: ASSVGNVADSTEPTKRMLSFQGLAELAHREYQAGDFEAAERHCMQLWRQEPDNTGVLLLLSSIHFQCRRLDRSAHFSTLAIKQNPLLAEAYSNLGNVYKERGQLQEAIEHYRHALRLKPDFIDGYINLAAALVAAGDMEGAVQAYVSALQYNPDLYCVRSDLGNLLKALGRLEEAKACYLKAIETQPNFAVAWSNLGCVFNAQGEIWLAIHHFEKAVTLDPNFLDAYINLGNVLKEARIFDRAVAAYLRALSLSPNHAVVHGNLACVYYEQGLIDLAIDTYRRAIELQPHFPDAYCNLANALKEKGSVAEAEDCYNTALRLCPTHADSLNNLANIKREQGNIEEAVRLYRKALEVFPEFAAAHSNLASVLQQQGKLQEALMHYKEAIRISPTFADAYSNMGNTLKEMQDVQGALQCYTRAIQINPAFADAHSNLASIHKDSGNIPEAIASYRTALKLKPDFPDAYCNLAHCLQIVCDWTDYDERMKKLVSIVADQLEKNRLPSVHPHHSMLYPLSHGFRKAIAERHGNLCLDKINVLHKPPYEHPKDLKLSDGRLRVGYVSSDFGNHPTSHLMQSIPGMHNPDKFEVFCYALSPDDGTNFRVKVMAEANHFIDLSQIPCNGKAADRIHQDGIHILVNMNGYTKGARNELFALRPAPIQAMWLGYPGTSGALFMDYIITDQETSPAEVAEQYSEKLAYMPHTFFIGDHANMFPHLKKKAVIDFKSNGHIYDNRIVLNGIDLKAFLDSLPDVKIVKMKCPDGGDNADSSNTALNMPVIPMNTIAEAVIEMINRGQIQITINGFSISNGLATTQINNKAATGEEVPRTIIVTTRSQYGLPEDAIVYCNFNQLYKIDPSTLQMWANILKRVPNSVLWLLRFPAVGEPNIQQYAQNMGLPQNRIIFSPVAPKEEHVRRGQLADVCLDTPLCNGHTTGMDVLWAGTPMVTMPGETLASRVAASQLTCLGCLELIAKNRQEYEDIAVKLGTDLEYLKKVRGKVWKQRISSPLFNTKQYTMELERLYLQMWEHYAAGNKPDHMIKPVEVTESA
B12: Serglycin (protein, UniProt P10124 28-158, looked up)
Serglycin: YPTRRARYQWVRCNPDSNSANCLEEKGPMFELLPGESNKIPRLRTDLFPKTRIQDLNRIFPLSEDYSGSGFGSGSGSGSGSGSGFLTEMEQDYQLVDESDAFHDNLRSLDRNLPSDSQDLGQHGLEEDFML
B13: OCIA domain-containing protein 1 (protein, UniProt Q9NX40 1-245, looked up)
OCIA domain-containing …: MNGRADFREPNAEVPRPIPHIGPDYIPTEEERRVFAECNDESFWFRSVPLAATSMLITQGLISKGILSSHPKYGSIPKLILACIMGYFAGKLSYVKTCQEKFKKLENSPLGEALRSGQARRSSPPGHYYQKSKYDSSVSGQSSFVTSPAADNIEMLPHYEPIPFSSSMNESAPTGITDHIVQGPDPNLEESPKRKNITYEELRNKNRESYEVSLTQKTDPSVRPMHERVPKKEVKVNKYGDTWDE

System: human HL60 cells
Assay: SWATH-MS proteomics, differential protein representation, akirin2 KO vs WT HL60 cells
Format: cell-based
Settings: akirin2 KO vs WT HL60 cells
Summary of the method: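 Read-out is label-free SWATH-MS protein area, globally normalized to total detected-protein area, with identifications held at 1% FDR against a library from information-dependent acquisition.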

[1] = SWATH-MS, over-represented in KO

Molecule | Fold Change [1] | Log (Fold Change) [1] | Fold Change (sheet "Over-represented in KO") | Log (Fold Change) (sheet "Over-represented in KO")
B1 | 2.6697 | 0.4265 | – | –
B2 | 2.204 | 0.3432 | – | –
B3 | 2.789 | 0.4455 | – | –
B4 | 2.042 | 0.31 | – | –
B5 | – | – | 1.096 | 0.03978
B6 | 2.0658 | 0.3151 | – | –
B7 | 2.248 | 0.3517 | – | –
B8 | 2.265 | 0.355 | – | –
B9 | 2.563 | 0.4087 | – | –
B10 | 2.742 | 0.4381 | – | –
B11 | 2.047 | 0.3112 | – | –
B12 | 2.81 | 0.4488 | – | –
B13 | 1.964 | 0.2932 | – | –
